The values that follow come from patent publication US20020094546A1.

The target of assay [1] is beta PDGF receptor on HR5βR cells expressing only the beta receptor (UniProt P09619). As to the kind of experiment: cell-based or functional assay.
Assay [2] deals with alpha PDGF receptor on 32D cells expressing only the alpha receptor (UniProt P16234). As to the kind of experiment: competition of unlabeled PDGF DD with ^125I-PDGF AA on 32D alpha receptor bearing cells.
The target of assay [3] is human beta PDGF receptor on human cells that carry both receptors (CCD1070 fibroblasts, MG-63 cells) (human) (UniProt P09619). As to the kind of experiment: two-site ELISA for alpha-beta PDGF receptor heterodimers: capture with anti-beta PDGF receptor mAb, detection with polyclonal anti-alpha PDGF receptor; MG-63 lysates after PDGF BB 10 ng/mL, 10 min.
Assay [4] shares this target. As to the kind of experiment: two-site ELISA for alpha-beta PDGF receptor heterodimers: capture with anti-beta PDGF receptor mAb, detection with polyclonal anti-alpha PDGF receptor; MG-63 lysates after PDGF DD 100 ng/mL, 10 min. Background: An ELISA detects its analyte on a solid surface through an enzyme-linked reagent.
Assay [5] addresses PDGF AA (human) (UniProt P04085). As to the kind of experiment: cell-based or functional assay.
In assay [6] the target is PDGF DD p35 (p35 form of the 30664188 gene product, dimeric C-terminal fragment) (human). Briefly: cell-based or functional assay.

human beta PDGF receptor on human cells that carry both receptors (CCD1070 fibroblasts, MG-63 cells) (human), sequence (P09619 33-1106): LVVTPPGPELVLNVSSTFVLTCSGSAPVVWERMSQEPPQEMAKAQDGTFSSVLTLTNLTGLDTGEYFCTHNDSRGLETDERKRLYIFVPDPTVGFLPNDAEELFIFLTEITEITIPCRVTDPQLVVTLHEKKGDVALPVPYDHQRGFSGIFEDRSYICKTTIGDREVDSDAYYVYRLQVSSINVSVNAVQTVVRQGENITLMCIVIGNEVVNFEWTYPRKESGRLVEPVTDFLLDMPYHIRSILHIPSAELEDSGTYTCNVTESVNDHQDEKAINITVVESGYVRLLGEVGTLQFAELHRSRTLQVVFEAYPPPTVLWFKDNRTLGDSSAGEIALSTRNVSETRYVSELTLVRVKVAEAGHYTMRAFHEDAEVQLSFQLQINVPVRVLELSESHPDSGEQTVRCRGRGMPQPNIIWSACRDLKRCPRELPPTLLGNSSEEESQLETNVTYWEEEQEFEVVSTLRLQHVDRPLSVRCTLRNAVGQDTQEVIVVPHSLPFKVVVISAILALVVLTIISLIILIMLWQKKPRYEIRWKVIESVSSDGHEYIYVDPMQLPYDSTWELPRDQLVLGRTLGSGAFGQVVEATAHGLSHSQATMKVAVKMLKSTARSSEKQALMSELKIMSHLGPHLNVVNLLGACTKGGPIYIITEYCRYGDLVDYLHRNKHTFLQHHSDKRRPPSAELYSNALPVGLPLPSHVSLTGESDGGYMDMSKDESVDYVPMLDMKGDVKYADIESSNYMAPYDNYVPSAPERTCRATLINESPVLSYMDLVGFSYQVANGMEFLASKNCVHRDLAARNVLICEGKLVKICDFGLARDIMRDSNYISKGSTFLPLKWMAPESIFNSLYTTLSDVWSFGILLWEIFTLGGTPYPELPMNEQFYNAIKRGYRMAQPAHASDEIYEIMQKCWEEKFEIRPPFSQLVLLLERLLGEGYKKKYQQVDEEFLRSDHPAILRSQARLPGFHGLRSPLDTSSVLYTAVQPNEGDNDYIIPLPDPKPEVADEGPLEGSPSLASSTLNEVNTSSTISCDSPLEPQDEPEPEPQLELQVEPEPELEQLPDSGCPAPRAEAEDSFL
alpha PDGF receptor on 32D cells expressing only the alpha receptor, sequence (P16234 24-1089): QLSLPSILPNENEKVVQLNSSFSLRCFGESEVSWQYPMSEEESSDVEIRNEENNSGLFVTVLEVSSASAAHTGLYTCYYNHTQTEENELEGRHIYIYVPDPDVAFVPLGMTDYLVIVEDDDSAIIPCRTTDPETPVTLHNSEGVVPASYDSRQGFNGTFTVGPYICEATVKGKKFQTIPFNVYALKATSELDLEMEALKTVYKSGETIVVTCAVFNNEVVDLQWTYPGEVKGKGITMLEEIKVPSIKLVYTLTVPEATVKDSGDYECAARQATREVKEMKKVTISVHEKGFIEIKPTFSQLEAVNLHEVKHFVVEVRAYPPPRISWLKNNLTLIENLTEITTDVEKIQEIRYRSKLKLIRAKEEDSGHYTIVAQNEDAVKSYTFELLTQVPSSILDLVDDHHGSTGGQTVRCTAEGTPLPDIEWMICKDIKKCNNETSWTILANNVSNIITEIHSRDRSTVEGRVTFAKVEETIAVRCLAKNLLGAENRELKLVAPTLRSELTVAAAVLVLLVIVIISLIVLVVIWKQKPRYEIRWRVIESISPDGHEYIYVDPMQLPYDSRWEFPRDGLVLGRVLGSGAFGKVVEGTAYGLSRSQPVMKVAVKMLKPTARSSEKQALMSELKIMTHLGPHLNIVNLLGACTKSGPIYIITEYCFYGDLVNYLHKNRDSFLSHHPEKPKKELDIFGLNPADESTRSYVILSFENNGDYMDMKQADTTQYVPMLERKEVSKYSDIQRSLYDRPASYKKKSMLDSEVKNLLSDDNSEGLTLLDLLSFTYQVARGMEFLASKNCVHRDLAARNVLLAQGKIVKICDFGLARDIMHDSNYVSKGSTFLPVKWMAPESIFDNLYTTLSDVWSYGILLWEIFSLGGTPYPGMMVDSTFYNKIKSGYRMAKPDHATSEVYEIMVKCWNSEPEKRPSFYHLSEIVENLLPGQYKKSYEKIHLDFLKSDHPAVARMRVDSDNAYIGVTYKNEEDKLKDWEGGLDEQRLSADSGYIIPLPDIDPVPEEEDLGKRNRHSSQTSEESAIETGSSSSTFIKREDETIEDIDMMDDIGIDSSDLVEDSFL
beta PDGF receptor on HR5βR cells expressing only the beta receptor, sequence (P09619 33-1106 limits assumed): as the sequence (P09619 33-1106) above

In assay [1], “PDGF DD p35 (p35 form of the 30664188 gene product, dimeric C-terminal fragment) (ligand)” came in with a lowest concentration at which beta PDGF receptor phosphorylation was detected, HR5 cells of 10 ng/mL. This substance registered a highest competitor concentration tested, no competition seen in assay [2] above 250 nM.
Take “human alpha PDGF receptor on human cells that carry both receptors (CCD1070 fibroblasts, MG-63 cells) (from UniProt P16234 24-1089)”: the Increase mODmin^-1 (650) (mODmin^-1 (650)) in assay [3] was 2.3; in assay [4], 12.5.
“soluble beta PDGF receptor-IgFc fusion (R&D Systems) (from UniProt P09619 33-530)”: in assay [5], the BrdU incorporation OD-blank, CCD1070 cells, AA + betaR Fc (AA alone 0.2705; + MOPC21 0.227) stood at 0.248 OD-blank and the BrdU incorporation OD-blank, NIH/3T3 cells, AA + betaR Fc (AA alone 0.931; + MOPC21 0.992) was 0.942 OD-blank. Besides, in assay [6], the BrdU incorporation OD-blank, CCD1070 cells, 3066 + betaR Fc (3066 alone 0.501; + MOPC21 0.456; starve 0.0303) was determined as 0.324 OD-blank and the BrdU incorporation OD-blank, NIH/3T3 cells, 3066 + betaR Fc (3066 alone 0.902; + MOPC21 0.892; starve 0.0055) stood at 0.0365 OD-blank.
